Laboratory results published in publication PMC4359968 (Cancer research, 2015).

Molecular target: RAGE-Fc (human RAGE) (human, UniProt Q15109 23-342)
Experiment: ELISA

Sequence of RAGE-Fc (human RAGE) (Q15109 23-342): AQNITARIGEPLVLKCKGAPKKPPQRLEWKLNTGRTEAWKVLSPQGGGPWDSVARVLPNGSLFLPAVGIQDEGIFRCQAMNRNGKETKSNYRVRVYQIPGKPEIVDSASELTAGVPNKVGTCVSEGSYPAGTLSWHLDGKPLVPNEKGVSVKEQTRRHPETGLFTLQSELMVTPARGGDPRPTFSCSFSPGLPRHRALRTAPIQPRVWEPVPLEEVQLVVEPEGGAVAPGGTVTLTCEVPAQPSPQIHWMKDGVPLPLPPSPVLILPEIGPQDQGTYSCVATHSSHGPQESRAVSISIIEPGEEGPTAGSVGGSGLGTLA

binding result: binds
B1: human recombinant S100A7 (ligand, UniProt P31151 1-101, looked up)
chain: MSNTQAERSIIGMIDMFHKYTRRDDKIEKPSLLTMMKENFPNFLSACDKKGTNYLADVFEKKDKNEDKKIDFSEFLSLLGDIATDYHKQSHGAAPCSGGSQ
